Source: paper PMC10458530, “Synthesis and Evaluation of ePSMA-DM1: A New Theranostic Small-Molecule Drug Conjugate (T-SMDC) for Prostate Cancer” (Pharmaceuticals, 2023)
Where two headings read alike, the source gives them in different places. Non-standard residues stand in square brackets, D forms with d. Residues, ends and D or L forms follow the SMILES beside them. *: point of attachment. Propanoyl(3-SS-DM1) = COc1cc2cc(c1Cl)N(C)C(=O)C[C@H](OC(=O)[C@H](C)N(C)C(=O)CCSSCCC(=O)*)[C@]1(C)O[C@H]1[C@H](C)[C@@H]1C[C@@](O)(NC(=O)O1)[C@H](OC)/C=C/C=C(\C)C2; DOTA = O=C(O)CN1CCN(CC(=O)O)CCN(CC(=O)*)CCN(CC(=O)O)CC1; EuK = O=C(O)CC[C@H](NC(=O)N[C@@H](CCCCN*)C(=O)O)C(=O)O; Sta = CC(C)C[C@H](N)[C@@H](O)CC(=O)O; Ahx = NCCCCCC(=O)O

How the values were obtained:
[1] = LogD7.4 by shake-flask method; type: physicochemical; details: PBS pH 7.4/n-octanol
Procedure: The distribution coefficients (LogD7.4 values) were determined by the shake-flask method, in which 2 μL (~0.5 MBq) of [^111In]In-ePSMA-DM1 was added to an Eppendorf tube containing 1 mL of PBS (0.01 M, pH 7.4)/n-octanol (v/v, 1:1). After vigorous vortexing, the solution was centrifuged at 2500 g for 3 min for phase separation. The n-octanol phase was separated from the PBS phase into a new Eppendorf tube and centrifuged for 15 min. Samples (3 × 10 μL) of the two phases were taken out and measured in the γ-counter. LogD7.4 values were calculated by using the following equation: LogD7.4 = log [(counts in octanol phase)/(counts in aqueous phase)] and the experiment was performed in triplicate.

[2] = Ex vivo biodistribution; type: in vivo, mouse; details: male, mouse, intravenous, total radioactivity; for tissue uptake at 1 h: 1 h p.i.; for tissue uptake at 4 h: 4 h p.i.; for tissue uptake at 24 h: 24 h p.i.
Procedure: Animal experiments were performed using male BALB/c nude mice (8–10 weeks old; Janvier Labs, Le Genest-Saint-Isle, France). Animals were housed in individually ventilated cages (Blue line IVC, 2 mice per cage) under sterile standard conditions with cage enrichments present and free access to animal chow (Sniff GmbH, Soest, Germany) and water. They were acclimated for 1 week prior to experiments. Mice were subcutaneously inoculated with 4.0 × 10^6 LS174T cells in the right flank diluted in 100 μL of cell suspension […]. The average tumor volume size per group (n = 4) was of 206.2 ± 7.9 mm^3 (average weight of 105.8 ± 7.3 mg) after non-blinded grouping to enable homogenous tumor size distribution. [^111In]In-ePSMA-DM1 was injected intravenously via the tail vein. All experiments were approved by the institutional Animal Welfare Committee and were conducted in accordance to the guidelines of the Revised Dutch Act on Animal Experimentation (WOD).
Mice were intravenously injected with ~1 nmol of [^111In]In-ePSMA-DM1 (5 MBq). Mice (n = 4/timepoint) were euthanized by cervical dislocation at 1, 4 and 24 h p.i. A block group (co-injection of 50 nmol of PSMA-617) was included, and mice were euthanized at 4 h p.i. Organs (blood, heart, lungs, liver, spleen, stomach, intestines, pancreas, kidneys, muscle, skin, bone and prostate) and the tumors were collected in pre-weighed tubes, weighed after organ collection, and measured in the γ-counter, for which the calibration factor was determined by measuring different known activities of In-111. Activity was corrected for decay, and uptake was expressed as percentage of the injected dose per gram of the tissue (% ID/g). The biological half-lives in tissues of [^111In]In-ePSMA-DM1 were determined using a one-phase decay algorithm in GraphPad Prism 9.0 (GraphPad Software, Boston, MA, USA).

[3] = BALB/c nude (BALB/c nu/nu), blood, 1 nmol, read-out: uptake in blood
[4] = BALB/c nude (BALB/c nu/nu), heart, 1 nmol, read-out: uptake in heart
[5] = BALB/c nude (BALB/c nu/nu), kidney, 1 nmol, read-out: uptake in kidney
[6] = BALB/c nude (BALB/c nu/nu), liver, 1 nmol, read-out: uptake in liver
[7] = BALB/c nude (BALB/c nu/nu), lung, 1 nmol, read-out: uptake in lung
[8] = BALB/c nude (BALB/c nu/nu), muscle, 1 nmol, read-out: uptake in muscle
[9] = BALB/c nude (BALB/c nu/nu), pancreas, 1 nmol, read-out: uptake in pancreas
[10] = BALB/c nude (BALB/c nu/nu), skin, 1 nmol, read-out: uptake in skin
[11] = BALB/c nude (BALB/c nu/nu), spleen, 1 nmol, read-out: uptake in spleen
[12] = BALB/c nude (BALB/c nu/nu), stomach, 1 nmol, read-out: uptake in stomach
[13] = BALB/c nude (BALB/c nu/nu), tumor, 1 nmol, read-out: uptake in tumor
[14] = BALB/c nude (nu/nu), bone, 1 nmol, read-out: uptake in bone
[15] = BALB/c nude (nu/nu), intestines, 1 nmol, read-out: uptake in intestines
[16] = BALB/c nude (nu/nu), prostate, 1 nmol, read-out: uptake in prostate

Compound: COc1cc2cc(c1Cl)N(C)C(=O)C[C@H](OC(=O)[C@H](C)N(C)C(=O)CCSSCCC(=O)NCCCC[C@H](NC(=O)CN1CCN(CC(=O)O)CCN(CC(=O)O)CCN(CC(=O)O)CC1)C(=O)N[C@@H](CC(=O)O)C(=O)N[C@@H](Cc1ccccc1)C(=O)N[C@@H](CC(C)C)[C@@H](O)CC(=O)NCCCCCC(=O)NCCCC[C@H](NC(=O)N[C@@H](CCC(=O)O)C(=O)O)C(=O)O)[C@]1(C)O[C@H]1[C@H](C)[C@@H]1C[C@@](O)(NC(=O)O1)[C@H](OC)/C=C/C=C(\C)C2 [[^111In]In-ePSMA-DM1, metal not drawn] ({DOTA}-K(Propanoyl(3-SS-DM1))DF[Sta][Ahx]-EuK)
- logD [1]: -2.47 ± 0.11
- tissue uptake at 1 h [2, 3]: 1.43 ± 0.04 %ID/g
- tissue uptake at 4 h [2, 3]: 0.37 ± 0.01 %ID/g
- tissue uptake at 24 h [2, 3]: 0.04 %ID/g
- tissue uptake at 4 h ([2]; BALB/c nude (BALB/c nu/nu), blood, block (co-injection of PSMA-617), read-out: uptake in blood): 0.3 ± 0.04 %ID/g
- tissue uptake at 1 h [2, 4]: 0.65 ± 0.1 %ID/g
- tissue uptake at 4 h [2, 4]: 0.23 ± 0.04 %ID/g
- tissue uptake at 24 h [2, 4]: 0.1 ± 0.02 %ID/g
- tissue uptake at 4 h ([2]; BALB/c nude (BALB/c nu/nu), heart, block (co-injection of PSMA-617), read-out: uptake in heart): 0.18 %ID/g
- tissue uptake at 1 h [2, 5]: 34 ± 2.54 %ID/g
- tissue uptake at 4 h [2, 5]: 31.6 ± 1.78 %ID/g
- tissue uptake at 24 h [2, 5]: 13.2 ± 0.95 %ID/g
- tissue uptake at 4 h ([2]; BALB/c nude (BALB/c nu/nu), kidney, block (co-injection of PSMA-617), read-out: uptake in kidney): 24 ± 1.46 %ID/g
- tissue uptake at 1 h [2, 6]: 0.68 %ID/g
- tissue uptake at 4 h [2, 6]: 0.63 ± 0.02 %ID/g
- tissue uptake at 24 h [2, 6]: 0.39 ± 0.04 %ID/g
- tissue uptake at 4 h ([2]; BALB/c nude (BALB/c nu/nu), liver, block (co-injection of PSMA-617), read-out: uptake in liver): 0.56 ± 0.05 %ID/g
- tissue uptake at 1 h [2, 7]: 1.34 ± 0.18 %ID/g
- tissue uptake at 4 h [2, 7]: 0.4 ± 0.03 %ID/g
- tissue uptake at 24 h [2, 7]: 0.25 ± 0.12 %ID/g
- tissue uptake at 4 h ([2]; BALB/c nude (BALB/c nu/nu), lung, block (co-injection of PSMA-617), read-out: uptake in lung): 0.51 ± 0.26 %ID/g
- tissue uptake at 1 h [2, 8]: 0.3 ± 0.06 %ID/g
- tissue uptake at 4 h [2, 8]: 0.21 ± 0.16 %ID/g
- tissue uptake at 24 h [2, 8]: 0.07 ± 0.01 %ID/g
- tissue uptake at 4 h ([2]; BALB/c nude (BALB/c nu/nu), muscle, block (co-injection of PSMA-617), read-out: uptake in muscle): 0.1 ± 0.01 %ID/g
- tissue uptake at 4 h [2, 9]: 0.17 ± 0.01 %ID/g
- tissue uptake at 24 h [2, 9]: 0.09 ± 0.01 %ID/g
- tissue uptake at 4 h ([2]; BALB/c nude (BALB/c nu/nu), pancreas, block (co-injection of PSMA-617), read-out: uptake in pancreas): 0.14 ± 0.02 %ID/g
- tissue uptake at 1 h [2, 10]: 1.37 ± 0.29 %ID/g
- tissue uptake at 4 h [2, 10]: 0.75 ± 0.12 %ID/g
- tissue uptake at 1 h [2, 11]: 1.32 ± 0.28 %ID/g
- tissue uptake at 4 h [2, 11]: 0.47 ± 0.08 %ID/g
- tissue uptake at 24 h [2, 11]: 0.27 ± 0.01 %ID/g
- tissue uptake at 4 h ([2]; BALB/c nude (BALB/c nu/nu), spleen, block (co-injection of PSMA-617), read-out: uptake in spleen): 0.32 ± 0.02 %ID/g
- tissue uptake at 1 h [2, 12]: 0.8 ± 0.61 %ID/g
- tissue uptake at 4 h [2, 12]: 0.47 ± 0.32 %ID/g
- tissue uptake at 4 h [2, 13]: 1.19 ± 0.22 %ID/g
- tissue uptake at 24 h [2, 13]: 0.5 ± 0.14 %ID/g
- tissue uptake at 4 h ([2]; BALB/c nude (BALB/c nu/nu), tumor, block (co-injection of PSMA-617), read-out: uptake in tumor): 0.8 ± 0.31 %ID/g
- tissue uptake at 1 h [2, 14]: 0.73 ± 0.27 %ID/g
- tissue uptake at 4 h [2, 14]: 0.41 ± 0.06 %ID/g
- tissue uptake at 24 h [2, 14]: 0.3 ± 0.03 %ID/g
- tissue uptake at 4 h ([2]; BALB/c nude (nu/nu), bone, block (co-injection of PSMA-617), read-out: uptake in bone): 0.33 ± 0.04 %ID/g
- tissue uptake at 1 h [2, 15]: 0.56 ± 0.19 %ID/g
- tissue uptake at 4 h [2, 15]: 0.45 ± 0.2 %ID/g
- tissue uptake at 24 h [2, 15]: 0.12 ± 0.03 %ID/g
- tissue uptake at 4 h ([2]; BALB/c nude (nu/nu), intestines, block (co-injection of PSMA-617), read-out: uptake in intestines): 0.56 ± 0.35 %ID/g
- tissue uptake at 1 h ([2]; BALB/c nude (nu/nu), pancreas, 1 nmol, read-out: uptake in pancreas): 0.43 ± 0.11 %ID/g
- tissue uptake at 1 h [2, 16]: 1.92 ± 0.87 %ID/g
- tissue uptake at 4 h [2, 16]: 0.46 ± 0.19 %ID/g
- tissue uptake at 24 h [2, 16]: 0.16 ± 0.03 %ID/g
- tissue uptake at 4 h ([2]; BALB/c nude (nu/nu), prostate, block (co-injection of PSMA-617), read-out: uptake in prostate): 0.4 ± 0.18 %ID/g
- tissue uptake at 24 h ([2]; BALB/c nude (nu/nu), skin, 1 nmol, read-out: uptake in skin): 0.44 ± 0.05 %ID/g
- tissue uptake at 4 h ([2]; BALB/c nude (nu/nu), skin, block (co-injection of PSMA-617), read-out: uptake in skin): 0.57 ± 0.19 %ID/g
- tissue uptake at 24 h ([2]; BALB/c nude (nu/nu), stomach, 1 nmol, read-out: uptake in stomach): 0.05 ± 0.02 %ID/g
- tissue uptake at 4 h ([2]; BALB/c nude (nu/nu), stomach, block (co-injection of PSMA-617), read-out: uptake in stomach): 0.3 ± 0.24 %ID/g
- tissue uptake at 1 h ([2]; BALB/c nude (nu/nu), tumor, 1 nmol, read-out: uptake in tumor): 2.39 ± 0.29 %ID/g
